Laboratory results taken from paper doi:10.1101/2022.06.24.497440.
pKd: −log10 of the molar value.

Key:
[1] = molecular target: CaV1.2 IQ motif peptide F1658A (UniProt P15381); assay: ITC
[2] = molecular target: CaV1.2 IQ motif peptide F1658D (UniProt P15381); assay: ITC
[3] = molecular target: CaV1.2 IQ motif peptide I1654A (UniProt P15381); assay: ITC
[4] = molecular target: CaV1.2 IQ motif peptide Y1649A (UniProt P15381); assay: ITC
[5] = molecular target: CaV1.2 IQ motif peptide Y1657D (UniProt P15381); assay: ITC
[6] = molecular target: fluorescently labeled CaV1.2 IQ peptide K1662E (UniProt P15381); assay: fluorescence polarisation
[7] = molecular target: fluorescently labeled CaV1.2 IQ peptide, wildtype (UniProt P15381); assay: fluorescence polarisation
[8] = molecular target: fluorescently labeled CaV1.2 IQ peptide Y1657D (UniProt P15381); assay: fluorescence polarisation

Substance	pKd [1]	pKd [2]	pKd [3]	pKd [4]	pKd [5]	pKd [6]	pKd [7]	pKd [8]
calmodulin mutant D21A/D23A/D25A/E32Q/D57A/D59A/N61A/E68Q (CaM12’), Ca2+ bound at EF3 and EF4 (from UniProt P0DP23 1-149) (natural protein)	7.49	5.40	7.22	7.59	5.10	> 7.00	> 7.00	
calmodulin, wild type, Ca2+-free (apoCaM) (from UniProt P0DP23 1-149) (natural protein)								4.22
